IntAct's records for PubMed 31515488

B1: Cyclin-D1-binding protein 1 (Homo sapiens), O95273 (parent)
chain: MASATAPAAAVPTLASPLEQLRHLAEELRLLLPRVRVGEAQETTEEFNREMFWRRLNEAAVTVSREATTLTIVFSQLPLPSPQETQKFCEQVHAAIKAFIAVYYLLPKDQGITLRKLVRGATLDIVDGMAQLMEVLSVTPTQSPENNDLISYNSVWVACQQMPQIPRDNKAAALLMLTKNVDFVKDAHEEMEQAVEECDPYSGLLNDTEENNSDNHNHEDDVLGFPSNQDLYWSEDDQELIIPCLALVRASKACLKKIRMLVAENGKKDQVAQLDDIVDISDEISPSVDDLALSIYPPMCHLTVRINSAKLVSVLKKALEITKASHVTPQPEDSWIPLLINAIDHCMNRIKELTQSELEL
partner: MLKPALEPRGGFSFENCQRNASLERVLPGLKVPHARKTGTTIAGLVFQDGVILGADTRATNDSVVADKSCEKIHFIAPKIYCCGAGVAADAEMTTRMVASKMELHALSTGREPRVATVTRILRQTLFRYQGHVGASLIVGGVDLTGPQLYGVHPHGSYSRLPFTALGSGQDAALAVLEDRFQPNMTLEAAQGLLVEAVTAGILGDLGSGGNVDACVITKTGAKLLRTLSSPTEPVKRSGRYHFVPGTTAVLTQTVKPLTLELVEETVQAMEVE
B2: Isoform 1 of Myotubularin-related protein 9 (Homo sapiens), Q96QG7-1 (parent)
chain: MEFAELIKTPRVDNVVLHRPFYPAVEGTLCLTGHHLILSSRQDNTEELWLLHSNIDAIDKRFVGSLGTIIIKCKDFRIIQLDIPGMEECLNIASSIEALSTLDSITLMYPFFYRPMFEVIEDGWHSFLPEQEFELYSSATSEWRLSYVNKEFAVCPSYPPIVTVPKSIDDEALRKVATFRHGGRFPVLSYYHKKNGMVIMRSGQPLTGTNGRRCKEDEKLINATLRAGKRGYIIDTRSLNVAQQTRAKGGGFEQEAHYPQWRRIHKSIERYHILQESLIKLVEACNDQTHNMDRWLSKLEASNWLTHIKEILTTACLAAQCIDREGASILIHGTEGTDSTLQVTSLAQIILEPRSRTIRGFEALIEREWLQAGHPFQQRCAQSAYCNTKQKWEAPVFLLFLDCVWQILRQFPCSFEFNENFLIMLFEHAYASQFGTFLGNNESERCKLKLQQKTMSLWSWVNQPSELSKFTNPLFEANNLVIWPSVAPQSLPLWEGIFLRWNRSSKYLDEAYEEMVNIIEYNKELQAKVNILRRQLAELETEDGMQESP
partner: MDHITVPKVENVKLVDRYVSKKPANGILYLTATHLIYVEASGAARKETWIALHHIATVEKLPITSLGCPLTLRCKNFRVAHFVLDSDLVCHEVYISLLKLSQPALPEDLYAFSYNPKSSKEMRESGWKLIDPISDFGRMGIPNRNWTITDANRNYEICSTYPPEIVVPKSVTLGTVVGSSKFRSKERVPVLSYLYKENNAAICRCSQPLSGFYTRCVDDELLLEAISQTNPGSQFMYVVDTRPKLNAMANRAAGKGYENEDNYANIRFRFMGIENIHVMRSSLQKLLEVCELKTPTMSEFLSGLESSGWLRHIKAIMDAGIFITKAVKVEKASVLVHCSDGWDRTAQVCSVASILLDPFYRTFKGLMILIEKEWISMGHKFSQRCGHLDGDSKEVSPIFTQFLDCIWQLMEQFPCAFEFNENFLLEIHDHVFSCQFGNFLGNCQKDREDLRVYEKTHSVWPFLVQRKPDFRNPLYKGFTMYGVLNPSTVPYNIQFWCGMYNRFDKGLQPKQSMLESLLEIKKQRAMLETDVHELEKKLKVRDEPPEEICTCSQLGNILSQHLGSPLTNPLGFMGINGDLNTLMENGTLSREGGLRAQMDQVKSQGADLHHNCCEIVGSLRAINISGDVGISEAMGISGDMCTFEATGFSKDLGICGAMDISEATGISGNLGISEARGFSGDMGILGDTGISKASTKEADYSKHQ
B3: Caspase recruitment domain-containing protein 9 (Homo sapiens), Q9H257 (parent)
chain: MSDYENDDECWSVLEGFRVTLTSVIDPSRITPYLRQCKVLNPDDEEQVLSDPNLVIRKRKVGVLLDILQRTGHKGYVAFLESLELYYPQLYKKVTGKEPARVFSMIIDASGESGLTQLLMTEVMKLQKKVQDLTALLSSKDDFIKELRVKDSLLRKHQERVQRLKEECEAGSRELKRCKEENYDLAMRLAHQSEEKGAALMRNRDLQLEIDQLKHSLMKAEDDCKVERKHTLKLRHAMEQRPSQELLWELQQEKALLQARVQELEASVQEGKLDRSSPYIQVLEEDWRQALRDHQEQANTIFSLRKDLRQGEARRLRCMEEKEMFELQCLALRKDSKMYKDRIEAILLQMEEVAIERDQAIATREELHAQHARGLQEKDALRKQVRELGEKADELQLQVFQCEAQLLAVEGRLRRQQLETLVLSSDLEDGSPRRSQELSLPQDLEDTQLSDKGCLAGGGSPKQPFAALHQEQVLRNPHDAGLSSGEPPEKERRRLKESFENYRRKRALRKMQKGWRQGEEDRENTTGSDNTDTEGS
partner: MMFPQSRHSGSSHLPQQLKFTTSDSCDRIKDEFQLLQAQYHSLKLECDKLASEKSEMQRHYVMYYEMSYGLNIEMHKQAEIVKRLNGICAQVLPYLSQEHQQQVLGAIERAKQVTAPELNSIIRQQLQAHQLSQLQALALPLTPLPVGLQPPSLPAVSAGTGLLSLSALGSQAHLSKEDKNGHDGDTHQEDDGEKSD
B4: Methylthioribulose-1-phosphate dehydratase (Homo sapiens), Q96GX9 (parent)
chain: MSGCDAREGDCCSRRCGAQDKEHPRYLIPELCKQFYHLGWVTGTGGGISLKHGDEIYIAPSGVQKERIQPEDMFVCDINEKDISGPSPSKKLKKSQCTPLFMNAYTMRGAGAVIHTHSKAAVMATLLFPGREFKITHQEMIKGIKKCTSGGYYRYDDMLVVPIIENTPEEKDLKDRMAHAMNEYPDSCAVLVRRHGVYVWGETWEKAKTMCECYDYLFDIAVSMKKVGLDPSQLPVGENGIV
B5: Protein-lysine methyltransferase METTL21C (Homo sapiens), Q5VZV1 (parent)
chain: MDVCLSSAQQPGRRGEGLSSPGGWLEAEKKGAPQKDSTGGVLEESNKIEPSLHSLQKFVPTDYASYTQEHYRFAGKEIVIQESIESYGAVVWPGAMALCQYLEEHAEELNFQDAKILEIGAGPGLVSIVASILGAQVTATDLPDVLGNLQYNLLKNTLQCTAHLPEVKELVWGEDLDKNFPKSAFYYDYVLASDVVYHHYFLDKLLTTMVYLSQPGTVLLWANKFRFSTDYEFLDKFKQVFDTTLLAEYPESSVKLFKGILKWD
B6: Isoform 1 of 1-aminocyclopropane-1-carboxylate synthase-like protein 1 (Homo sapiens), Q96QU6-1 (parent)
chain: MFTLPQKDFRAPTTCLGPTCMQDLGSSHGEDLEGECSRKLDQKLPELRGVGDPAMISSDTSYLSSRGRMIKWFWDSAEEGYRTYHMDEYDEDKNPSGIINLGTSENKLCFDLLSWRLSQRDMQRVEPSLLQYADWRGHLFLREEVAKFLSFYCKSPVPLRPENVVVLNGGASLFSALATVLCEAGEAFLIPTPYYGAITQHVCLYGNIRLAYVYLDSEVTGLDTRPFQLTVEKLEMALREAHSEGVKVKGLILISPQNPLGDVYSPEELQEYLVFAKRHRLHVIVDEVYMLSVFEKSVGYRSVLSLERLPDPQRTHVMWATSKDFGMSGLRFGTLYTENQDVATAVASLCRYHGLSGLVQYQMAQLLRDRDWINQVYLPENHARLKAAHTYVSEELRALGIPFLSRGAGFFIWVDLRKYLPKGTFEEEMLLWRRFLDNKVLLSFGKAFECKEPGWFRFVFSDQVHRLCLGMQRVQQVLAGKSQVAEDPRPSQSQEPSDQRR
partner: B6 chain
B7: Annexin A10 (Homo sapiens), Q9UJ72 (parent)
chain: MFCGDYVQGTIFPAPNFNPIMDAQMLGGALQGFDCDKDMLINILTQRCNAQRMMIAEAYQSMYGRDLIGDMREQLSDHFKDVMAGLMYPPPLYDAHELWHAMKGVGTDENCLIEILASRTNGEIFQMREAYCLQYSNNLQEDIYSETSGHFRDTLMNLVQGTREEGYTDPAMAAQDAMVLWEACQQKTGEHKTMLQMILCNKSYQQLRLVFQEFQNISGQDMVDAINECYDGYFQELLVAIVLCVRDKPAYFAYRLYSAIHDFGFHNKTVIRILIARSEIDLLTIRKRYKERYGKSLFHDIRNFASGHYKKALLAICAGDAEDY
partner: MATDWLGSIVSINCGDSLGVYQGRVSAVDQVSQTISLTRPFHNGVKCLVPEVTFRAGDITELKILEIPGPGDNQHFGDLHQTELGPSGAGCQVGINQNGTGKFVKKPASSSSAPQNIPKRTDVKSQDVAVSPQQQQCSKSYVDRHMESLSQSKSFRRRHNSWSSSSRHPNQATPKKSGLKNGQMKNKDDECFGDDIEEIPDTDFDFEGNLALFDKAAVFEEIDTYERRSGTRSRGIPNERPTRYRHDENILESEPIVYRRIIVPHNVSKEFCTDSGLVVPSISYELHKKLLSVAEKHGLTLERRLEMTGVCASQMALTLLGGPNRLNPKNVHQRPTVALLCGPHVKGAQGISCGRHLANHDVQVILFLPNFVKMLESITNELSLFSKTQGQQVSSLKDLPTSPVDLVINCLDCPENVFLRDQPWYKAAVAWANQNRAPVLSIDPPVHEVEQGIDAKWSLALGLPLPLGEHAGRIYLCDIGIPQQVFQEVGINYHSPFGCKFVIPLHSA

Variants of: B1
Conditions: with psb10_human PSMB10, P40306

effect of a mutation on the interaction | Variant
disrupting interaction strength | I277T

Variants of: B2
Conditions: with mtmr8_human MTMR8, Q96EF0

effect of a mutation on the interaction | Variant
with no effect | F127I

Variants of: B2
Conditions: with mtmr8_human MTMR8, Q96EF0
Remark: another data set of the same source

effect of a mutation on the interaction | Variant
with no effect | S126C

Variants of: B3
Conditions: with tle5_human TLE5, Q08117

effect of a mutation on the interaction | Variant
with no effect | R173H

Variants of: B4
Conditions: with ntaq1_human NTAQ1, Q96HA8

effect of a mutation on the interaction | Variant
with no effect | G111A
with no effect | M181V

Variants of: B5
Conditions: with eloc_human ELOC

effect of a mutation on the interaction | Variant
with no effect | G15R

Variants of: B6
Conditions: with 1a1l1_human ACCS

effect of a mutation on the interaction | Variant
disrupting interaction strength | S393L

Variants of: B7
Conditions: with edc3_human EDC3, Q96F86

effect of a mutation on the interaction | Variant
with no effect | M71L
disrupting interaction strength | M62T
with no effect | F234S
